Source: article PMC2034474

System: HIS-GST-cERCC1 (ERCC1 central domain) (Homo sapiens)
Test: EMSA

Substance: b10 (bubble10, dsDNA with 10 unpaired bases)
- Kd: 2500 nM
